# Measured values as given in patent US20240270857A1 (CHIA TAI TIANQING PHARMACEUTICAL GROUP, published 2024).
# Substitutions are numbered along the chain they refer to.
# T1: IL-36R naturally expressed on OVCAR8 cells and on normal human epidermal keratinocytes (NHK cells) (human, UniProt Q9HB29 20-575)
# T1 sequence (looked up): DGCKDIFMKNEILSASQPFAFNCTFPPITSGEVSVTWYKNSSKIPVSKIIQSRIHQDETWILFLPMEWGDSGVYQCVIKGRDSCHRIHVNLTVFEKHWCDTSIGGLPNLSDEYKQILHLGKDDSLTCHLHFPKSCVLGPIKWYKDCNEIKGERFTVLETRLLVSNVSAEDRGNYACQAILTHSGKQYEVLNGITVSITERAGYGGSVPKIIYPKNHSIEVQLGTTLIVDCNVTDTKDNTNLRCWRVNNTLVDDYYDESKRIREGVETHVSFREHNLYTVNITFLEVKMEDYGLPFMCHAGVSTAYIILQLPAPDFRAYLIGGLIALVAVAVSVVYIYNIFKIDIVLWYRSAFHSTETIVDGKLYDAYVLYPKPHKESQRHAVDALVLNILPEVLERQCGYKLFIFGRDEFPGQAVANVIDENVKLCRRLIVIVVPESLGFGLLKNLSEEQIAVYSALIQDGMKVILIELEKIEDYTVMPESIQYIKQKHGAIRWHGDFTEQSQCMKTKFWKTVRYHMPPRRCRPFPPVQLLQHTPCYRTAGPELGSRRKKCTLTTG
# B1: hz84C4-1.1 (antibody, human IgG4 S228P, kappa, V domains shown)
# VH: QVQLVQSGAEVKKPGASVKVSCKASGYFFTSYWMNWVRQAPGQGLEWMGMIHPYDSETRYAQKFQGRVTMTVDKSTSTVYMELSSLRSEDTAVYYCASSTTAFAYWGQGTLVTVSS
# VL: DIQMTQSPSSLSASVGDRVTITCRASQDIGNALNWYQQKPGKAPKRLIYATSSLDPGVPSRFSGSRSGTDFTLTISSLQPEDFATYYCLQYASSPYTFGQGTKVEIKR
# notes: Humanized, human IgG4 / kappa
# B2: hz84C4-1.4 (antibody, human IgG4 S228P, kappa, V domains shown)
# VH: B1 VH with F28Y, Y60L, Q65K
# VL: B1 VL
# notes: Humanized, human IgG4 / kappa
# B3: hz84C4-2.1 (antibody, human IgG4 S228P, kappa, V domains shown)
# VH: B1 VH
# VL: B1 VL with Y36L, F71Y
# notes: Humanized, human IgG4 / kappa
# B4: hz84C4-1.2 (antibody, human IgG4 S228P, kappa, V domains shown)
# VH: B1 VH with M50Y
# VL: B1 VL
# notes: Humanized, human IgG4 / kappa
# B5: hz84C4-1.3 (antibody, human IgG4 S228P, kappa, V domains shown)
# VH: B1 VH with H52Y
# VL: B1 VL
# notes: Humanized, human IgG4 / kappa
# B6: hz84C4-1.5 (antibody, human IgG4 S228P, kappa, V domains shown)
# VH: B1 VH with A24V, R38N, Y60L, Q65K
# VL: B1 VL
# notes: Humanized, human IgG4 / kappa
# Molecular target: T1, IL-36R naturally expressed on OVCAR8 …
# Assay: cell-based or functional assay
Binder,IC50 (M); hIL36α; IL-8 production,IC50 (M); hIL36αβγ; IL-8 production,IC50 (M); hIL36β; IL-8 production,IC50 (M); hIL36γ; IL-8 production,Maximum inhibition rate %; hIL36α; IL-8 production,Maximum inhibition rate %; hIL36αβγ; IL-8 production,Maximum inhibition rate %; hIL36β; IL-8 production,Maximum inhibition rate %; hIL36γ; IL-8 production
B1,2.62e-11 M,5.25e-11 M,2.27e-11 M,1.44e-11 M,103%,93.7%,103%,103%
B2,3.71e-11 M,5.76e-11 M,3.48e-11 M,5.01e-12 M,94.4%,92.5%,93.5%,109%
B3,5.23e-11 M,4.82e-11 M,3.18e-11 M,1.81e-11 M,99.5%,107%,96.8%,97.5%
B4,1.02e-10 M,6.67e-11 M,9.53e-12 M,3.42e-12 M,92.5%,82.8%,91.2%,98.3%
B5,~2.41e-09 M,~6.51e-12 M,~1.43e-09 M,2.13e-09 M,16.9%,40.7%,19.4%,57.5%
B6,2.87e-11 M,2.77e-11 M,1.55e-11 M,1.27e-11 M,101%,97%,101%,109%
